Paper PMC11876699, “Elongator is a microtubule polymerase selective for polyglutamylated tubulin” (The EMBO Journal, 2025)
Each block holds one molecule with its values, some of them ahead of it.

B3: eGFP-Elp456 (Drosophila, wild type) (complex)
chain 1: MTSFRKRTVQKPIRGTRTSPHTAQVITSSGNPYLDVVIGGGLPMGSICLIEEDRFMTHAKVLAKYFLAEGVISKQEIFLGSLDDIPAEMLRRLPRPLTDQESMEQSEVQALGDAGAENGLRIAWRYNDLPLVNSEHATAKIGHHFNLMEQMDSMMLYNVKTTLWDDSPKHLDIVIDEEFSKSSSPTTPSLEQQPVEDAPPIPGTETAPQEKMPAQEEENSANNNNNNNNNSSSVTSSTKTGSQDSPLQVFHNPRYKGLLNDIQQLLRNESFVAGTKNNLCRVCLTSLGSPLWYDEHFGEDLIKFLTLLMASVRNCNSVCLITMPMHLIAKYDASLVPKIRQLVDYAIELESFAGSERETHPAFKEYSGLLHLHKMSAINTLAVHMPETPDLAFKLRRKKFIIEKFHLPPELQESSAKPDNCISGLLSNSNATASLDF
chain 2: MLSNLVVTKQKVVLVIDELNRERIAPKFIGSLLHEQGQGADTIKALPTGVSLKHVATFEALIDKYANNNTGSTTDSNSTGFNVILPTLADLLCYQTPAFIFGFLNRLRRSDNVRRVFLWASPQHLQDPHADYILAGCEYLAELVLRLESDKLLSLISRKPGGGVSNRRYSCEVSKTQFKVTPLDGGLPAGASPKQPSPEAEQTTEPASSTFKIELDEDEVLARNALTLPYERTSEPSEGNIIYTPDADDDFDEEDPDEDLCI
chain 3: MATSVLLACGLNEQKLPGFVHISEESNVDASFLISCVLGQRLRISNAGTLLVCLQHHYQHYFNAGMRLGYNTNIFQGKTLGVIDVLSDMAGEGLASKWLTNTEGQTLTDQLVEDIRAQVERNYASRNSYTVLIDNLSILFNLGASKLQVQQFCQDLAALGKEREKLTVITKLSNSDIYQLTDNNVAKLGQVRIQVLRLKSGVFREVDGKLLIERVLDEGNYACEETRKEVLYKVNDRNVKVFAPGEIGVKV
notes: Elp4, Drosophila melanogaster; Elp5, Drosophila melanogaster; ORF; Elp6, Drosophila melanogaster; it is put on Elp4 here only by the name eGFP-Elp456 (surmised); also called eGFP-Elp456 (WT); source: E. coli BL21 (DE3) Rosetta2, purified (Glutathione Sepharose, TEV elution, Superdex 200); not shown: GST, N-terminal, cleaved; copies: 2 + 2 + 2

What was measured:
[1] = target: eGFP-Elp456 solo (Drosophila, three point mutations in each subunit) (Drosophila) (UniProt Q9VMQ7); assay: MST; Monolith X, 25 °C; eGFP-Elp456 (WT or mutated) constant at 50 nM, tubulin or Elp123 in twofold dilution series; binding buffer with 0.05% Tween-20
[2] = target: B3; assay: as above
[3] = target: B3; assay: MST; as a11, with 100 µM tRNA (and 2.5 mM MgATP by the legend) in the buffer of both partners; conditions: both partners purified
[4] = target: microtubules assembled from porcine brain tubulin (pig, UniProt Q2XVP4 1-451, rhodamine, AMCA, HiLyte 647 or biotin on part of the tubulin, by experiment); assay: TIRF microscopy of decorated microtubules; GMPCPP-stabilized microtubules settled on passivated glass, proteins added one after the other in BRB80 imaging buffer; 100 nM 488-SNAP-Elongator or 488-SNAP-Elp123, 500 nM mScarlet-Elp456, 15 µM 647-GTP-Tubulin; conditions: both partners purified
[5] = target: T1, Elp123 subcomplex (Drosophila Elp1, Elp2 and His6-PC-SNAP-Elp3) (Drosophila melanogaster, UniProt Q9VGK7 1-1252; Q7K4B3 1-794; Q9VQZ6 1-552, Alexa Fluor 488 on the SNAP tag); assay: MST; Monolith X, 25 °C; eGFP-Elp456 (WT or mutated) constant at 50 nM, tubulin or Elp123 in twofold dilution series; binding buffer with 0.05% Tween-20; conditions: both partners purified
T1 construct: Elp1, Drosophila melanogaster, codon-optimised synthetic gene, untagged; Elp2, Drosophila melanogaster, codon-optimised synthetic gene, untagged; Elp3, Drosophila melanogaster, codon-optimised synthetic gene; Elutes at about 600 kDa, a dimer of Elp1-Elp2-Elp3 protomers; source: Sf9, baculovirus (biGBac pBig1a), purified (Protein C resin, heparin, Superose 6); not shown: His6, N-terminal, kept; …
T1 sequence (Q9VGK7 whole entry, chain 1 of 3): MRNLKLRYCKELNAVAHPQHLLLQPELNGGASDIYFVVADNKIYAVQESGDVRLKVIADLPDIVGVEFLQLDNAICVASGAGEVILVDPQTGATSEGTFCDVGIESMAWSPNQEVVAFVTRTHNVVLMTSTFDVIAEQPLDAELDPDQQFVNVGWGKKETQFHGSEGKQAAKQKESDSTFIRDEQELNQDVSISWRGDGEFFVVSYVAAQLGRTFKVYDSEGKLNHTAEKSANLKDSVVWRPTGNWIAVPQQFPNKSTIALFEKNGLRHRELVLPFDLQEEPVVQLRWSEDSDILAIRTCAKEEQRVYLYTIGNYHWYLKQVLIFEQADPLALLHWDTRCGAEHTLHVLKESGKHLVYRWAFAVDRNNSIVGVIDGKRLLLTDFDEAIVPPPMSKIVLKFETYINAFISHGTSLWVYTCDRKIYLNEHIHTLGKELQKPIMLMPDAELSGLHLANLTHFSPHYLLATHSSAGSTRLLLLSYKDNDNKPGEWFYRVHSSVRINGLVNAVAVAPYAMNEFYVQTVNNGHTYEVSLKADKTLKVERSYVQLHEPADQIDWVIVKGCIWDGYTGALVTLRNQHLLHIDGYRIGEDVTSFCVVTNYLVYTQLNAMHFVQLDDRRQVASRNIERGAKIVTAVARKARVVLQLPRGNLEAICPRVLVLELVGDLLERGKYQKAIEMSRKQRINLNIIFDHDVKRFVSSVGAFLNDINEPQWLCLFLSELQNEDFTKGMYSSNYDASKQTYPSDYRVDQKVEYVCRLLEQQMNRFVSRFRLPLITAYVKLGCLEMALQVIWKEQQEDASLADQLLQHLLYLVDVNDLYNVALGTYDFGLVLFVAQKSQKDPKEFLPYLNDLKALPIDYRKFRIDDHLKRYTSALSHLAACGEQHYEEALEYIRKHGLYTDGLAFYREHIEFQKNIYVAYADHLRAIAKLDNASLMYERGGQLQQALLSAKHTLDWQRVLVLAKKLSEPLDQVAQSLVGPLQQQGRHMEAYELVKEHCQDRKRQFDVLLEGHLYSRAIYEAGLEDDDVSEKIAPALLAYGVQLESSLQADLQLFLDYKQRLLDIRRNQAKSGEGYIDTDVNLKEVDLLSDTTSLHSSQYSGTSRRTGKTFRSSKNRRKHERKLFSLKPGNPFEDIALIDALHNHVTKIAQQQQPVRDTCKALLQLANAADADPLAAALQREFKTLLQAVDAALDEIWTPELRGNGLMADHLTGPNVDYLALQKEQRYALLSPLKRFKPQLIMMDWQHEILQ
T1 sequence (Q7K4B3 whole entry, chain 2 of 3): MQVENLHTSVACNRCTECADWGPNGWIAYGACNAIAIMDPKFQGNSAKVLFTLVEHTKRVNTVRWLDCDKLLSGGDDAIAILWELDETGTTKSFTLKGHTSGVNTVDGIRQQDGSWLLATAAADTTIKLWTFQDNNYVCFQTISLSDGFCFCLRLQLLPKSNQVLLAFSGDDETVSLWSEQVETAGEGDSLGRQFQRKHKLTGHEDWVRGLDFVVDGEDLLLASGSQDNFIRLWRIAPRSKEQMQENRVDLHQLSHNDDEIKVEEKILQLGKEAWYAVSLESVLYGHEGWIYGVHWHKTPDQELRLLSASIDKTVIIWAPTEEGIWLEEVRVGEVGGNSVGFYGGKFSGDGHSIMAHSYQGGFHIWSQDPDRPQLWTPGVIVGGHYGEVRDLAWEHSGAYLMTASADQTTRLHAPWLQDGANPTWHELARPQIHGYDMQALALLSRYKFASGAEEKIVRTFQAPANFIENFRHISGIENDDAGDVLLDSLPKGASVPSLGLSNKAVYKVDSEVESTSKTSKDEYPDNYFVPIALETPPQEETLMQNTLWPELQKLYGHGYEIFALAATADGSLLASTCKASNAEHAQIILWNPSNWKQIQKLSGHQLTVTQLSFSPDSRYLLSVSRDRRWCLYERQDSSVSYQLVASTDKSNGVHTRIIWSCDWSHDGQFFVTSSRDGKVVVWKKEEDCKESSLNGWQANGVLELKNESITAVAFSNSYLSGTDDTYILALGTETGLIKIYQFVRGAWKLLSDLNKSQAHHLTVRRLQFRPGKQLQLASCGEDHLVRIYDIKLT
T1 sequence (Q9VQZ6 whole entry, chain 3 of 3): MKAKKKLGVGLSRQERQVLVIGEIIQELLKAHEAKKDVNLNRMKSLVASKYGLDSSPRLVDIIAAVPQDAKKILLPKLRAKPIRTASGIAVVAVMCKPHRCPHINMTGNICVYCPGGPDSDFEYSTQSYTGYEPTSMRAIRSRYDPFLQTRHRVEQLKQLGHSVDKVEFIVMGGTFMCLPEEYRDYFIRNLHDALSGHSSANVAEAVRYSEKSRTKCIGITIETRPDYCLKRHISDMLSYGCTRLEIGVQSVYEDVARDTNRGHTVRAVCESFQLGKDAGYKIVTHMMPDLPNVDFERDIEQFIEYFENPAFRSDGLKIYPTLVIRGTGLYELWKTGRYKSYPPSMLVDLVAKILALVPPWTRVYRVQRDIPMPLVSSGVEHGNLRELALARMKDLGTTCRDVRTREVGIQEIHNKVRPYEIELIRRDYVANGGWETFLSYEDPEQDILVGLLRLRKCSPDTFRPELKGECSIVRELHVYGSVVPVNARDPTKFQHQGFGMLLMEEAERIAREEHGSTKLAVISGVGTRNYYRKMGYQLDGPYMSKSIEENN

- Kd [1]: 67.1 nM
Molecule: Elp123 subcomplex (Drosophila Elp1, Elp2 and His6-PC-SNAP-Elp3) (from UniProt Q9VGK7 1-1252; Q7K4B3 1-794; Q9VQZ6 1-552)

- Kd [2]: > 22000 nM
Molecule: de-tyrosinated HeLa S3 tubulin (treated with carboxypeptidase A) (from UniProt P68363 1-451; P07437 1-444) (complex)

- Kd [2]: 1800 nM
Molecule: pig brain tubulin (free GTP-αβ-tubulin heterodimers) (from UniProt Q2XVP4 1-451; P02554 1-445) (complex)

- Kd [2]: 21200 nM
Molecule: tubulin purified from HeLa S3 cells (from UniProt P68363 1-451; P07437 1-444) (complex)

- Kd [2]: > 25000 nM
Molecule: tubulin purified from TTLL1/7-double KO mouse brain (lacking polyglutamylation) (from UniProt P68369 1-451; Q7TMM9 1-445) (complex)

- Kd [1]: 1600 nM
- Kd [3]: 2900 nM
- Kd ([2]; both partners purified): 1200 nM
B1: recombinant Drosophila α1β1-tubulin heterodimers (His6-PC-tubulin α1 84B with co-purified tubulin β1 56D) (complex)
chain 1: MRECISIHVGQAGVQIGNACWELYCLEHGIQPDGQMPSDKTVGGGDDSFNTFFSETGAGKHVPRAVFVDLEPTVVDEVRTGTYRQLFHPEQLITGKEDAANNYARGHYTIGKEIVDLVLDRIRKLADQCTGLQGFLIFHSFGGGTGSGFTSLLMERLSVDYGKKSKLEFAIYPAPQVSTAVVEPYNSILTTHTTLEHSDCAFMVDNEAIYDICRRNLDIERPTYTNLNRLIGQIVSSITASLRFDGALNVDLTEFQTNLVPYPRIHFPLVTYAPVISAEKAYHEQLSVAEITNACFEPANQMVKCDPRHGKYMACCMLYRGDVVPKDVNAAIATIKTKRTIQFVDWCPTGFKVGINYQPPTVVPGGDLAKVQRAVCMLSNTTAIAEAWARLDHKFDLMYAKRAFVHWYVGEGMEEGEFSEAREDLAALEKDYEEVGMDSGDGEGEGAEEY
chain 2: MREIVHIQAGQCGNQIGAKFWEIISDEHGIDATGAYHGDSDLQLERINVYYNEASGGKYVPRAVLVDLEPGTMDSVRSGPFGQIFRPDNFVFGQSGAGNNWAKGHYTEGAELVDSVLDVVRKEAESCDCLQGFQLTHSLGGGTGSGMGTLLISKIREEYPDRIMNTYSVVPSPKVSDTVVEPYNATLSVHQLVENTDETYCIDNEALYDICFRTLKLTTPTYGDLNHLVSLTMSGVTTCLRFPGQLNADLRKLAVNMVPFPRLHFFMPGFAPLTSRGSQQYRALTVPELTQQMFDAKNMMAACDPRHGRYLTVAAIFRGRMSMKEVDEQMLNIQNKNSSYFVEWIPNNVKTAVCDIPPRGLKMSATFIGNSTAIQELFKRISEQFTAMFRRKAFLHWYTGEGMDEMEFTEAESNMNDLVSEYQQYQEATADEDAEFEEEQEAEVDEN
modifications: the paper calls this tubulin highly modified (polyglutamylated, acetylated and partially detyrosinated)
notes: tubulin α1 84B, Drosophila melanogaster, codon-optimised gene; tubulin β1 56D, Drosophila melanogaster, endogenous, co-purified with the tagged α chain; also called recombinant Drosophila tubulin; PC-α-Tubulin; source: D.mel-2 (S2) cells stably transfected (pMT Puro), purified (Protein C resin, Superdex 200); also in S2 cell lysate; not shown: His6, N-terminal, kept; PC, N-terminal, kept

- fold less fluorescence intensity on microtubules without Elp123 than with it [4]: 9.3 fold
B2: mScarlet-Elp456 (Drosophila) (complex)
chain 1: MTSFRKRTVQKPIRGTRTSPHTAQVITSSGNPYLDVVIGGGLPMGSICLIEEDRFMTHAKVLAKYFLAEGVISKQEIFLGSLDDIPAEMLRRLPRPLTDQESMEQSEVQALGDAGAENGLRIAWRYNDLPLVNSEHATAKIGHHFNLMEQMDSMMLYNVKTTLWDDSPKHLDIVIDEEFSKSSSPTTPSLEQQPVEDAPPIPGTETAPQEKMPAQEEENSANNNNNNNNNSSSVTSSTKTGSQDSPLQVFHNPRYKGLLNDIQQLLRNESFVAGTKNNLCRVCLTSLGSPLWYDEHFGEDLIKFLTLLMASVRNCNSVCLITMPMHLIAKYDASLVPKIRQLVDYAIELESFAGSERETHPAFKEYSGLLHLHKMSAINTLAVHMPETPDLAFKLRRKKFIIEKFHLPPELQESSAKPDNCISGLLSNSNATASLDF
chain 2: MLSNLVVTKQKVVLVIDELNRERIAPKFIGSLLHEQGQGADTIKALPTGVSLKHVATFEALIDKYANNNTGSTTDSNSTGFNVILPTLADLLCYQTPAFIFGFLNRLRRSDNVRRVFLWASPQHLQDPHADYILAGCEYLAELVLRLESDKLLSLISRKPGGGVSNRRYSCEVSKTQFKVTPLDGGLPAGASPKQPSPEAEQTTEPASSTFKIELDEDEVLARNALTLPYERTSEPSEGNIIYTPDADDDFDEEDPDEDLCI
chain 3: MATSVLLACGLNEQKLPGFVHISEESNVDASFLISCVLGQRLRISNAGTLLVCLQHHYQHYFNAGMRLGYNTNIFQGKTLGVIDVLSDMAGEGLASKWLTNTEGQTLTDQLVEDIRAQVERNYASRNSYTVLIDNLSILFNLGASKLQVQQFCQDLAALGKEREKLTVITKLSNSDIYQLTDNNVAKLGQVRIQVLRLKSGVFREVDGKLLIERVLDEGNYACEETRKEVLYKVNDRNVKVFAPGEIGVKV
notes: Elp4, Drosophila melanogaster; Elp5, Drosophila melanogaster; ORF; Elp6, Drosophila melanogaster; put on Elp4 here by the name only (surmised); source: E. coli BL21 (DE3) Rosetta2, purified (Glutathione Sepharose, TEV elution, Superdex 200); not shown: GST, N-terminal, cleaved; copies: 2 + 2 + 2

Molecule: B3
- Kd [5]: 15.5 ± 3.7 nM
